Measured values as given in patent US20250263440A1, “CD38-BINDING AGENTS AND USES THEREOF” (PeptiDream Inc., priority 2019, published 2025).
Starred links: 1 amine or outer side, 2 acyl side, 3 side chain; linkers in the order of their positions; H or OH if unused. Positions of bridges follow the written chain, without caps; N, C: chain ends. Non-standard residues stand in square brackets, D forms with d. No end group written: not given here. F3G = 3-guanidinophenylalanine, N=C(N)Nc1cccc(C[C@H](N[*:1])C(=O)[*:2])c1; Bip = N[C@@H](Cc1ccc(-c2ccccc2)cc1)C(=O)O; Met(O2) = CS(=O)(=O)CC[C@H](N)C(=O)O; NMeF = CN[C@@H](Cc1ccccc1)C(=O)O; hArg = N=C(N)NCCCC[C@H](N)C(=O)O; Ahp(2) = CCCCC[C@H](N)C(=O)O

The molecules below were run against T1, Recombinant human CD38 protein (R&D Systems) (human, UniProt P28907 43-300) (assay: ELISA). Details: not given.

| Binding Assay (larger values indicate stronger binding) | Molecule |
| --- | --- |
| 1.49 | {CH2CO}-AR[Ahp(2)]YHDAVL[Bip][Ahp(2)]DC (thioether N-13) [I-1 analogue with Ala at position 7 (A R Ahp Y H D A V L Bpb Ahp D C)] |
| 1.79 | {CH2CO}-AR[Ahp(2)]YHDGVL[Bip][Ahp(2)]AC (thioether N-13) [I-1 analogue with Ala at position 12 (A R Ahp Y H D G V L Bph Ahp A C)] |
| 0.08 | {CH2CO}-AR[Ahp(2)]YHDGVA[Bip][Ahp(2)]DC (thioether N-13) [I-1 analogue with Ala at position 9 (A R Ahp Y H D G V A Bph Ahp D C)] |
| 0.3 | {CH2CO}-AR[Ahp(2)]YHDGAL[Bip][Ahp(2)]DC (thioether N-13) [I-1 analogue with Ala at position 8 (A R Ahp Y H D G A L Bph Ahp D C)] |
| 0.09 | {CH2CO}-AR[Ahp(2)]YHDGVLA[Ahp(2)]DC (thioether N-13) [I-1 analogue with Ala at position 10 (A R Ahp Y H D G V L A Ahp D C)] |
| 0.11 | {CH2CO}-ARAYHDGVL[Bip][Ahp(2)]DC (thioether N-13) [I-1 analogue with Ala at position 3 (A R A Y H D G V L Bph Ahp D C)] |
| 0.2 | {CH2CO}-AR[Ahp(2)]YHDGVL[Bip]ADC (thioether N-13) [I-1 analogue with Ala at position 11 (A R Ahp Y H D G V L Bph A D C)] |

Biological target: T1, Recombinant human CD38 protein (R&D …)
Test: ELISA
Details: not given
Remark: another data set of the same source

| Binding Assay (larger values indicate stronger binding) | Molecule |
| --- | --- |
| 0.12 | {CH2CO}-ALH[NMeF]VLP[Bip]AWVC (thioether N-12) [I-2 analogue with Ala at position 9 (A L H MeF V L P Bph A W V C)] |
| 0.1 | {CH2CO}-ALHAVLP[Bip]VWVC (thioether N-12) [I-2 analogue with Ala at position 4 (A L H A V L P Bph V W V C)] |
| 0.84 | {CH2CO}-AAH[NMeF]VLP[Bip]VWVC (thioether N-12) [I-2 analogue with Ala at position 2 (A A H MeF V L P Bph V W V C)] |
| 0.09 | {CH2CO}-ALH[NMeF]VLPAVWVC (thioether N-12; also: structure as I-2) [I-2 analogue with Ala at position 8 (A L H MeF V L P A V W V C)] |
| 0.47 | {CH2CO}-ALH[NMeF]ALP[Bip]VWVC (thioether N-12) [I-2 analogue with Ala at position 5 (A L H MeF A L P Bph V W V C)] |
| 0.37 | {CH2CO}-ALA[NMeF]VLP[Bip]VWVC (thioether N-12) [I-2 analogue with Ala at position 3 (A L A MeF V L P Bph V W V C)] |
| 0.1 | {CH2CO}-ALH[NMeF]VLP[Bip]VAVC (thioether N-12) [I-2 analogue with Ala at position 10 (A L H MeF V L P Bph V A V C)] |
| 0.09 | {CH2CO}-ALH[NMeF]VAP[Bip]VWVC (thioether N-12) [I-2 analogue with Ala at position 6 (A L H MeF V A P Bph V W V C)] |
| 0.11 | {CH2CO}-ALH[NMeF]VLA[Bip]VWVC (thioether N-12) [I-2 analogue with Ala at position 7 (A L H MeF V L A Bph V W V C)] |
| 0.41 | {CH2CO}-ALH[NMeF]VLP[Bip]VWAC (thioether N-12) [I-2 analogue with Ala at position 11 (A L H MeF V L P Bph V W A C)] |

What follows are molecules tested against T2, His-tagged CD38 (human, UniProt P28907 43-300, limits assumed) (assay: SPR (Biacore S200), His-tagged CD38 immobilised, single-cycle kinetics). Details: not given.
T2 construct: The order of CD38 and tag is not known; not shown: His tag
Protocol: EDC/NHS mixture was injected at a flow rate of […] for 7 minutes to thereby activate the functional groups on sensor chip. His-tagged CD38 in Running Buffer (10 mM HEPES pH7.4, 150 mM NaCl, 0.05% Tween 20) was injected immobilized to at a flow rate of […]. For 7 minutes to immobilize the CD38 on the substrate surfaces of the sensor chip. Then Ethanolamine was injected at a flow rate of […] for 7 minutes.
1.0 M Ethanolamine(aq.) was injected at a flow rate of 10 L/min for 420 seconds for capping. 10 mM peptides (which were synthesised described above) in DMSO were diluted to obtain 10 uM with Running Buffer, and prepared 100 nM, 50 nM, 25 nM, 10 nM, 5 nM of each peptide's solutions (Peptide Samples).
Using these Peptide Samples, kinetics of peptides against His-tagged CD38 was measured. The method adopted for sample measurement was a single-cycle kinetics method. The analysis was conducted using the evaluation software 1.1 provided with Biacore S200. A DMSO correction curve obtained by solvent correction measurements was applied for the analysis. Kinetics fitting was done on the difference data obtained by subtracting the baseline data from sample measurement data.

| Kd | Molecule |
| --- | --- |
| 3.53 nM | ARXYHDEVLXXDC (not fully specified; Ahp at 3; Bph at 10; Ado ((S)-2-aminoundecanoic acid) at 11; circular peptide) [Circular peptide having amino acid sequence represented by SEQ ID NO.24] |
| 1.38 nM | ARXYHDEVLXXDC (not fully specified; Ahp at 3; Bph at 10; PhNle ((S)-2-amino-6-phenylhexanoic acid) at 11; circular peptide) [Circular peptide having amino acid sequence represented by SEQ ID NO.25] |
| 38 nM | {CH2CO}-AR[Ahp(2)]YHDEV[Met(O2)][Bip][Ahp(2)]DC (thioether N-13; not fully specified; also: circular peptide, closure not given here) [Circular peptide having amino acid sequence represented by SEQ ID NO.14] |
| 22.2 nM | {CH2CO}-AR[Ahp(2)]YHDQV[Met(O2)][Bip][Ahp(2)]DC (thioether N-13; not fully specified; also: circular peptide, closure not given here) [Circular peptide having amino acid sequence represented by SEQ ID NO.13] |
| 3.34 nM | ARXYHDEVLXXDC (not fully specified; Ahp at 3; Bph at 10; Ano ((S)-2-aminononanoic acid) at 11; circular peptide) [Circular peptide having amino acid sequence represented by SEQ ID NO.23] |
| 2 nM | {CH2CO}-A[F3G][Ahp(2)]YHDEVL[Bip][Ahp(2)]DC (thioether N-13; not fully specified; also: circular peptide, closure not given here) [Circular peptide having amino acid sequence represented by SEQ ID NO.29] |
| 2.29 nM | {CH2CO}-AR[Ahp(2)]YHD[hArg]VL[Bip][Ahp(2)]DC (thioether N-13; not fully specified; also: circular peptide, closure not given here) [Circular peptide having amino acid sequence represented by SEQ ID NO.12] |
| 9.44 nM | {CH2CO}-AR[Ahp(2)]YHDGV[Met(O2)][Bip][Ahp(2)]DC (thioether N-13; not fully specified) [Circular peptide having amino acid sequence represented by SEQ ID NO.9] |
| 26 nM | ARXYHDEVLXXDC (not fully specified; Ahp at 3; Bph at 10; PhNva ((S)-2-amino-5-phenylpentanoic acid) at 11; circular peptide) [Circular peptide having amino acid sequence represented by SEQ ID NO.26] |
| 4.99 nM | {CH2CO}-AR[Ahp(2)]YHDEVL[Bip][Ahp(2)]AC (thioether N-13) [Peptide of SEQ ID NO.27] |

The molecules below were run against T3, CD38 (Homo sapiens, UniProt P28907) (assay: ELISA binding assay of I-1 / I-2 sequence variants to CD38). Details: compounds similar to I-1, larger values indicate stronger binding.
T3 construct: purchased R&D Systems
Protocol: Recombinant human CD38 proteins were purchased from R&D Systems. In some embodiments, the following codons were used. ClAc-Ala: N-Chloroacetyl-L-alanine; MePhe: N-Methyl-L-phenylalanine; MeGly: N-Methyl-glycine; Ahp: (S)-2-aminoheptanoic acid; Bph: (S)-3-([1,1′-biphenyl]-4-yl)-2-aminopropanoic acid.
A number of compounds having similar structures to compound I-1 (difference being amino acid sequence) were prepared and assessed in an ELISA assay. The first sequence is of I-1, and SEQ ID.NO.1.
A number of compounds having similar structures to compound I-2 (difference being amino acid sequence) were prepared and assessed in an ELISA assay. The first sequence is of I-2, and SEQ ID NO. 2.

| Binding Assay | Molecule |
| --- | --- |
| 0.60 | A A Ahp Y H D G V L Bph Ahp D C: compound of similar structure to I-1, difference being amino acid sequence: Ala at position 2 (YHDGVL[Bip][Ahp(2)]DC; not fully specified (N-terminus, bridges)) |
| 0.11 | A R A Y H D G V L Bph Ahp D C: compound of similar structure to I-1, difference being amino acid sequence: Ala at position 3 (ARAYHDGVL[Bip][Ahp(2)]DC; not fully specified (N-terminus, bridges)) |
| 0.11 | A R Ahp A H D G V L Bph Ahp D C: compound of similar structure to I-1, difference being amino acid sequence: Ala at position 4 (AHDGVL[Bip][Ahp(2)]DC; not fully specified (N-terminus, bridges)) |
| 0.28 | A R Ahp Y A D G V L Bpb Ahp D C: compound of similar structure to I-1, difference being amino acid sequence: Ala at position 5 (YADGVL; not fully specified (N-terminus, C-terminus, bridges)) |

Same assay, conditions: compounds similar to I-2, larger values indicate stronger binding

| Binding Assay | Molecule |
| --- | --- |
| 0.10 | A L H A V L P Bph V W V C: compound of similar structure to I-2, difference being amino acid sequence: Ala at position 4 (ALHAVLP[Bip]VWVC; not fully specified (N-terminus, bridges)) |
| 0.09 | A L H MeF V L P A V W V C: compound of similar structure to I-2, difference being amino acid sequence: Ala at position 8 (VLPAVWVC; not fully specified (N-terminus, bridges)) |
